The koff is a measure of how fast the partners let go of each other.

Read-outs that look alike come from different tables or passages of the source.

Common to all, as to experiment: single-molecule TIRF colocalisation with deconvolution of colocalisation times
The target in assay [1] is T1, N-terminally SNAP-tagged human β2-adrenergic receptor (SNAP-β2AR) (human, UniProt P07550 1-413, SNAP-Surface Alexa Fluor 647 on the SNAP-tag).
Assay [2] deals with T1, N-terminally SNAP-tagged human …. This is another data set of the same source.
For assay [3] the target is unchanged. The source holds these as a separate data set.

B1: C-terminally Halo-tagged bovine β-arrestin 2 (βArr2-Halo) (natural protein)
chain: MGEKPGTRVFKKSSPNCKLTVYLGKRDFVDHLDKVDPVDGVVLVDPDYLKDRKVFVTLTCAFRYGREDLDVLGLSFRKDLFIANYQAFPPTPNPPRPPTRLQERLLRKLGQHAHPFFFTIPQNLPCSVTLQPGPEDTGKACGVDFEIRAFCAKSLEEKSHKRNSVRLVIRKVQFAPEKPGPQPSAETTRHFLMSDRSLHLEASLDKELYYHGEPLNVNVHVTNNSTKTVKKIKVSVRQYADICLFSTAQYKCPVAQVEQDDQVSPSSTFCKVYTITPLLSNNREKRGLALDGKLKHEDTNLASSTIVKEGANKEVLGILVSYRVKVKLVVSRGGDVSVELPFVLMHPKPHDHIALPRPQSAAPETDAPVDTNLIEFETNYATDDDIVFEDFARLRLKGLKDEDYDDQFC
modifications: Halo-JF549 on the Halo-tag (single-molecule microscopy); Halo-R110 on the Halo-tag (BRET)
On to B1, for which the “fold increase in kon versus basal” value in assay [1] was approximately 1.4 fold; in assay [2], approximately 1.8 fold. The molecule further yielded a koff in assay [3] of 1.34 s⁻¹.

The values above are taken from paper doi:10.1101/2022.11.15.516577 (bioRxiv, 2022).
